Laboratory results: patent US8247168B2, “Regulation of gene expression by protein methylation” (University of Southern California, priority 1998, dated 2012)

What was measured:
[1] = tested on: androgen receptor, estrogen receptor, and thyroid hormone receptor; experiment: Reporter gene activation by hormone-activated nuclear receptors in transiently transfected CV-1 cells; assay type: cell-based; conditions: co-expression of CARM1 with the NR and GRIP1, over NR+GRIP1 (lane e)
Procedure: (A) Transient transfection assays with CV-1 cells were performed as in FIG. 5 with 0.5 μg of GK1 reporter gene and 0.5 μg of each of the indicated vectors. (B) CV-1 cells were transiently transfected as in FIG. 5 with the following vectors, as indicated: 0.5 μg of nuclear receptor expression vector pSVAR0 (Brinkmann, A. O. et al. (1989) J. Steroid Biochem. Molec. Biol. 34:307) expressing AR, pHE0 (Green, S. et al. (1988) Nucleic Acids Res. 16:369) expressing ER, or pCMX.hTRβ1 (Feng, W. et al. (1998) Science 280:1747) expressing TR; 0.5 μg of a luciferase reporter gene with an appropriate promoter, MMTV promoter for AR, or MMTV promoter with the native glucocorticoid response elements replaced by a single estrogen response element for ER or palindromic thyroid hormone response element for TR (Umesono, K. and R. M. Evans (1989) Cell 57:1139); 0.5 μg of pSG5.HA-GRIP1; and 0.5 μg of pSG5.HA-CARM1 or pSG5.HA-CARM1 (VLD mutant). Transfection efficiency was monitored by using βgalactosidase activity expressed from 0.1 μg of co-transfected pCMV-βgal vector (Hong, H. et al. (1996) Proc. Natl. Acad. Sci. USA 93:4948-4952) as an internal control. After transfection, cells were grown in charcoal-treated serum; where indicated 20 nM hormone (H), i.e. dihydrotestosterone for AR, estradiol for ER, or triiodothyronine for TR, was included during the last 40 h of culture. […]

hnRNPA1 = experiment: Methylation of hnRNP A1, SDS-PAGE and fluorography (FIG. 8C); assay type: biochemical, human; conditions: 0.083 mg/ml hnRNP-A1
Procedure: CARM1 and PRMT1 have different protein methyltransferase substrate specificities. CARM1 methylates histone H3, whereas PRMT1 methylates histone H4. […] (A,B) Calf thymus histones (Boehringer Mannheim) were incubated for 30 min at 30° C. in 32.5 μl reactions containing 20 mM Tris-Cl, 0.2 M NaCl, 4 mM EDTA, pH 8.0, 0.32 mg/ml individual histone (2a, 2b, 3, or 4) or 1.3 mg/ml mixed histone (M), 0.037 mg/ml GST-CARM1 or GST-PRMT1, and 7 μM S-adenosyl-L-[methyl-^3H]methionine (specific activity of 14.7 Ci/mmol). Reactions were stopped by addition of SDS-NuPAGE sample buffer (Novex), and 40% of each stopped reaction was then subjected to SDS-PAGE in 4-12% NuPAGE Bis-Tris gradient gels (Novex) using the Na-MES running buffer. Gels were stained with Coomassie Blue R-250 (A), and then subjected to fluorography (Chamberlin, M. (1978) Anal. Biochem. 98:132) for 12 h at −70° C. on sensitized Kodak XAR-5 film (B). Molecular weight markers (MW) are shown at left. Concentrations of GST fusion proteins were determined in comparison with bovine serum albumin standards (Sigma) by SDS polyacrylamide gel electrophoresis and Coomassie Blue staining; it was assumed that bovine serum albumin stained twice as intensely as most other proteins. Concentrations of histones and hnRNP A1 were determined by the method of Lowry (Lowry, O. H. et al. (1951) J. Biol. Chem. 193:265). […]

B1: CARM1: novel murine protein arginine methyltransferase and transcriptional coactivator, 608 amino acids (protein, listed as Mus musculus)
chain: MAAAAATAVGPGAGSAGVAGPGGAGPCATVSVFPGARLLTIGDANGEIQRHAEQQALRLEVRAGPDAAGIALYSHEDVCVFKCSVSRETECSRVGRQSFIITLGCNSVLIQFATPHDFCSFYNILKTCRGHTLERSVFSERTEESSAVQYFQFYGYLSQQQNMMQDYVRTGTYQRAILQNHTDFKDKIVLDVGCGSGILSFFAAQAGARKIYAVEASTMAQHAEVLVKSNNLTDRIVVIPGKVEEVSLPEQVDIIISEPMGYMLFNERMLESYLHAKKYLKPSGNMFPTIGDVHLAPFTDEQLYMEQFTKANFRYQPSFHGVDLSALRGAAVDEYFRQPVVDTFDIRILMAKSVKYTVNFLEAKEGDLHRIEIPFKFHMLHSGLVHGLAFWFDVAFIGSIMTVWLSTAPTEPLTHWYQVRCLFQSPLFAKAGDTLSGTCLLIANKRQSYDISIVAQVDQTGSKSSNLLDLKNPFFRYTGTTPSPPPGSHYTSPSENMWNTGSTYNLSSGVAVAGMPTAYDLSSVIAGGSSVGHNNLIPLANTGIVNHTHSRMGSIMSTGIVQGSSGAQGGGGSSSAHYAVNNQFTMGGPAISMASPMSIPTNTMHYGS
further enhancement of reporter gene expression [1]: 2 to 4 fold
methylation of hnRNPA1 (hnRNPA1): not methylated
